Measurements: paper PMC6145892, “Roquin targets mRNAs in a 3′-UTR-specific manner by different modes of regulation”

Tests used:
[1] = molecular target: T1, Roquin-1 zinc finger (Znf, CCCH) (UniProt Q4VGL6 411-454); test: ITC; Zn2+; n=1.0; ITC at room temperature, RNA titrated into 10-40 uM protein; buffer 20 mM Tris pH 7.0, 150 mM NaCl, 25 uM ZnCl2, 2 mM TCEP, 0.02% azide (stated for Znf); NMR HSQC 50 uM protein, RT, 10% D2O; details: protein: recombinant; tags: His6-GST removed by TEV; chain copies: 2; single-stranded
T1 chain: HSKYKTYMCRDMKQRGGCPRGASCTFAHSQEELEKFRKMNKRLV

Roquin-1 ROQ domain [2] = molecular target: T2, Roquin-1 ROQ domain (UniProt Q4VGL6 171-326); test: ITC; n=0.81; ITC at room temperature, RNA titrated into 10-40 uM protein; buffer 20 mM Tris pH 7.0, 150 mM NaCl, 25 uM ZnCl2, 2 mM TCEP, 0.02% azide (stated for Znf); NMR HSQC 50 uM protein, RT, 10% D2O; details: protein: recombinant; tags: His6-thioredoxin, TEV-removable; single-stranded, no imino signals
T2 sequence: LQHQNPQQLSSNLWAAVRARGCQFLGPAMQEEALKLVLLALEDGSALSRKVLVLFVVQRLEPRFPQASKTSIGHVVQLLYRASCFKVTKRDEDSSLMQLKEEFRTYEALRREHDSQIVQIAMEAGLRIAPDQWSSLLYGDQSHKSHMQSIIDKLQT

[3] = molecular target: T1, Roquin-1 zinc finger (Znf, CCCH); test: ITC; Zn2+; n=0.5; ITC at room temperature, RNA titrated into 10-40 uM protein; buffer 20 mM Tris pH 7.0, 150 mM NaCl, 25 uM ZnCl2, 2 mM TCEP, 0.02% azide (stated for Znf); NMR HSQC 50 uM protein, RT, 10% D2O; details: protein: recombinant; tags: His6-GST removed by TEV; chain copies: 2; single-stranded, no imino signals
[4] = molecular target: T1, Roquin-1 zinc finger (Znf, CCCH); test: ITC; Zn2+; ITC at room temperature, RNA titrated into 10-40 uM protein; buffer 20 mM Tris pH 7.0, 150 mM NaCl, 25 uM ZnCl2, 2 mM TCEP, 0.02% azide (stated for Znf); NMR HSQC 50 uM protein, RT, 10% D2O; details: protein: recombinant; tags: His6-GST removed by TEV; chain copies: 2; single-stranded
[5] = molecular target: T1, Roquin-1 zinc finger (Znf, CCCH); test: ITC; Zn2+; n=0.45; ITC at room temperature, RNA titrated into 10-40 uM protein; buffer 20 mM Tris pH 7.0, 150 mM NaCl, 25 uM ZnCl2, 2 mM TCEP, 0.02% azide (stated for Znf); NMR HSQC 50 uM protein, RT, 10% D2O; details: protein: recombinant; tags: His6-GST removed by TEV; chain copies: 2; single-stranded
Roquin-1 ROQ domain [6] = molecular target: T2, Roquin-1 ROQ domain; test: ITC; complete loss of binding; ITC at room temperature, RNA titrated into 10-40 uM protein; buffer 20 mM Tris pH 7.0, 150 mM NaCl, 25 uM ZnCl2, 2 mM TCEP, 0.02% azide (stated for Znf); NMR HSQC 50 uM protein, RT, 10% D2O; details: protein: recombinant; tags: His6-thioredoxin, TEV-removable; single-stranded
[7] = molecular target: T1, Roquin-1 zinc finger (Znf, CCCH); test: ITC; Zn2+; n=0.48; ITC at room temperature, RNA titrated into 10-40 uM protein; buffer 20 mM Tris pH 7.0, 150 mM NaCl, 25 uM ZnCl2, 2 mM TCEP, 0.02% azide (stated for Znf); NMR HSQC 50 uM protein, RT, 10% D2O; details: protein: recombinant; tags: His6-GST removed by TEV; chain copies: 2; single-stranded

UUUUAACAU (ssRNA) [LBE 5'-half 9-mer]
Kd [1]: 35.6 ± 6.8 µM

UUUUAACAUUAUUUU (ssRNA) [LBE (Nfkbiz 3'-UTR 15-mer)]
Kd (Roquin-1 ROQ domain [2]): 3.6 ± 0.4 µM
Kd [3]: 26.3 ± 3.4 µM

CACACACACA (ssRNA) [(CA)5 10-mer]
binding result [4]: no binding

GUGUGUGUGU (ssRNA) [(GU)5 10-mer]
Kd [5]: 52.5 ± 7.2 µM

UUUUAAGCGUAUUUU (ssRNA) [LBE mutant (GCG)]
binding result (Roquin-1 ROQ domain [6]): no binding
Kd [7]: 21.4 ± 3.6 µM
